From PMC12102759 (2025)

B1: PIP5K1C peptide 642-657 (Phosphatidylinositol 4-phosphate 5-kinase type-1 gamma), 16-mer library wild type / TLN1 PTB (TLN1 Phosphotyrosine-binding (PTB) domain, residues 309-401) (parent complex)
chain 1: TDERSWVYSPLHYSAQ
chain 2: GVSFFLVKEKMKGKNKLVPRLLGITKECVMRVDEKTKEVIQEWNLTNIKRWAASPKSFTLDFGDYQDGYYSVQTTEGEQIAQLIAGYIDIILK

Variants of: B1
Assay: proteomic peptide phage display deep mutational scan (ProP-PD DMS): M13 P8 16-mer library selected against immobilised GST-tagged bait for four days (rounds), NGS of the eluted pools per day and pseudo-replica; bait immobilised on MaxiSorp plates (10 µg), library pre-cleared on GST, 2 h binding at 4 °C, five washes; one round per day, days 1-4; value from days 2 and 3

Compared with chain 1 E3M, chain 1 E3W is higher in screen value: 0.0019 average fractional NGS count over selection days 2 and 3 (reads of this peptide / all reads for the bait, averaged over … for the first, 0.0075 average fractional NGS count over selection days 2 and 3 (reads of this peptide / all reads for the bait, averaged over … for the second.

Going from chain 1 E3I to chain 1 E3P, the screen value falls from 0.00159 average fractional NGS count over selection days 2 and 3 (reads of this peptide / all reads for the bait, averaged over … to 0.000178 average fractional NGS count over selection days 2 and 3 (reads of this peptide / all reads for the bait, averaged over ….

First: chain 1 E3D
Second: chain 1 E3G
The screen value of the first is lower: 0.000475 average fractional NGS count over selection days 2 and 3 (reads of this peptide / all reads for the bait, averaged over … for the first, 0.00191 average fractional NGS count over selection days 2 and 3 (reads of this peptide / all reads for the bait, averaged over … for the second.

Compared with chain 1 E3K, chain 1 E3F is higher in screen value: 0.00138 average fractional NGS count over selection days 2 and 3 (reads of this peptide / all reads for the bait, averaged over … for the first, 0.00327 average fractional NGS count over selection days 2 and 3 (reads of this peptide / all reads for the bait, averaged over … for the second.

Compared with chain 1 E3A, chain 1 E3H is higher in screen value: 0.000271 average fractional NGS count over selection days 2 and 3 (reads of this peptide / all reads for the bait, averaged over … for the first, 0.00041 average fractional NGS count over selection days 2 and 3 (reads of this peptide / all reads for the bait, averaged over … for the second.

First: chain 1 E3S
Second: chain 1 E3Y
The screen value of the first is higher: 0.00226 average fractional NGS count over selection days 2 and 3 (reads of this peptide / all reads for the bait, averaged over … for the first, 0.00103 average fractional NGS count over selection days 2 and 3 (reads of this peptide / all reads for the bait, averaged over … for the second.

Going from chain 1 E3T to chain 1 E3N, the screen value rises from 0.00106 average fractional NGS count over selection days 2 and 3 (reads of this peptide / all reads for the bait, averaged over … to 0.00147 average fractional NGS count over selection days 2 and 3 (reads of this peptide / all reads for the bait, averaged over ….

First: chain 1 L11W
Second: chain 1 L11V
The screen value of the first is lower: 0.000722 average fractional NGS count over selection days 2 and 3 (reads of this peptide / all reads for the bait, averaged over … for the first, 0.00105 average fractional NGS count over selection days 2 and 3 (reads of this peptide / all reads for the bait, averaged over … for the second.

Going from chain 1 L11I to chain 1 L11E, the screen value falls from 0.00188 average fractional NGS count over selection days 2 and 3 (reads of this peptide / all reads for the bait, averaged over … to 0.000382 average fractional NGS count over selection days 2 and 3 (reads of this peptide / all reads for the bait, averaged over ….

Compared with chain 1 L11T, chain 1 L11A is lower in screen value: 0.00178 average fractional NGS count over selection days 2 and 3 (reads of this peptide / all reads for the bait, averaged over … for the first, 0.000511 average fractional NGS count over selection days 2 and 3 (reads of this peptide / all reads for the bait, averaged over … for the second.

First: chain 1 L11Y
Second: chain 1 L11F
The screen value of the first is lower: 0.000186 average fractional NGS count over selection days 2 and 3 (reads of this peptide / all reads for the bait, averaged over … for the first, 0.000354 average fractional NGS count over selection days 2 and 3 (reads of this peptide / all reads for the bait, averaged over … for the second.

Going from chain 1 L11H to chain 1 A15I, the screen value rises from 0.000309 average fractional NGS count over selection days 2 and 3 (reads of this peptide / all reads for the bait, averaged over … to 0.000328 average fractional NGS count over selection days 2 and 3 (reads of this peptide / all reads for the bait, averaged over ….

First: chain 1 A15M
Second: chain 1 A15P
The screen value of the first is lower: 0.00017 average fractional NGS count over selection days 2 and 3 (reads of this peptide / all reads for the bait, averaged over … for the first, 0.00282 average fractional NGS count over selection days 2 and 3 (reads of this peptide / all reads for the bait, averaged over … for the second.

Compared with chain 1 A15G, chain 1 A15S is higher in screen value: 0.000489 average fractional NGS count over selection days 2 and 3 (reads of this peptide / all reads for the bait, averaged over … for the first, 0.001 average fractional NGS count over selection days 2 and 3 (reads of this peptide / all reads for the bait, averaged over … for the second.

First: chain 1 A15D
Second: chain 1 A15L
The screen value of the first is higher: 0.00285 average fractional NGS count over selection days 2 and 3 (reads of this peptide / all reads for the bait, averaged over … for the first, 0.00142 average fractional NGS count over selection days 2 and 3 (reads of this peptide / all reads for the bait, averaged over … for the second.

Compared with chain 1 R4Y, chain 1 R4N is lower in screen value: 0.00355 average fractional NGS count over selection days 2 and 3 (reads of this peptide / all reads for the bait, averaged over … for the first, 0.00121 average fractional NGS count over selection days 2 and 3 (reads of this peptide / all reads for the bait, averaged over … for the second.

Going from chain 1 R4W to chain 1 R4M, the screen value rises from 0.000409 average fractional NGS count over selection days 2 and 3 (reads of this peptide / all reads for the bait, averaged over … to 0.00101 average fractional NGS count over selection days 2 and 3 (reads of this peptide / all reads for the bait, averaged over ….

First: chain 1 R4G
Second: chain 1 R4P
The screen value of the first is higher: 0.00304 average fractional NGS count over selection days 2 and 3 (reads of this peptide / all reads for the bait, averaged over … for the first, 0.000771 average fractional NGS count over selection days 2 and 3 (reads of this peptide / all reads for the bait, averaged over … for the second.

Compared with chain 1 R4A, chain 1 S9P is lower in screen value: 0.00627 average fractional NGS count over selection days 2 and 3 (reads of this peptide / all reads for the bait, averaged over … for the first, 0.000206 average fractional NGS count over selection days 2 and 3 (reads of this peptide / all reads for the bait, averaged over … for the second.

First: chain 1 S9N
Second: chain 1 S9A
The screen value of the first is higher: 0.0022 average fractional NGS count over selection days 2 and 3 (reads of this peptide / all reads for the bait, averaged over … for the first, 0.000707 average fractional NGS count over selection days 2 and 3 (reads of this peptide / all reads for the bait, averaged over … for the second.

Compared with chain 1 W6N, chain 1 W6V is higher in screen value: 0.00011 average fractional NGS count over selection days 2 and 3 (reads of this peptide / all reads for the bait, averaged over … for the first, 0.00015 average fractional NGS count over selection days 2 and 3 (reads of this peptide / all reads for the bait, averaged over … for the second.

Compared with chain 1 W6P, chain 1 P10H is higher in screen value: 0.000161 average fractional NGS count over selection days 2 and 3 (reads of this peptide / all reads for the bait, averaged over … for the first, 0.00282 average fractional NGS count over selection days 2 and 3 (reads of this peptide / all reads for the bait, averaged over … for the second.

Going from chain 1 P10Q to chain 1 P10R, the screen value falls from 0.001 average fractional NGS count over selection days 2 and 3 (reads of this peptide / all reads for the bait, averaged over … to 0.000767 average fractional NGS count over selection days 2 and 3 (reads of this peptide / all reads for the bait, averaged over ….

Going from chain 1 P10D to chain 1 P10K, the screen value rises from 0.00117 average fractional NGS count over selection days 2 and 3 (reads of this peptide / all reads for the bait, averaged over … to 0.00642 average fractional NGS count over selection days 2 and 3 (reads of this peptide / all reads for the bait, averaged over ….

Going from chain 1 P10F to chain 1 P10L, the screen value rises from 0.0019 average fractional NGS count over selection days 2 and 3 (reads of this peptide / all reads for the bait, averaged over … to 0.00637 average fractional NGS count over selection days 2 and 3 (reads of this peptide / all reads for the bait, averaged over ….

First: chain 1 P10Y
Second: chain 1 P10E
The screen value of the first is lower: 0.000349 average fractional NGS count over selection days 2 and 3 (reads of this peptide / all reads for the bait, averaged over … for the first, 0.000515 average fractional NGS count over selection days 2 and 3 (reads of this peptide / all reads for the bait, averaged over … for the second.

Going from chain 1 P10M to chain 1 P10T, the screen value rises from 0.00123 average fractional NGS count over selection days 2 and 3 (reads of this peptide / all reads for the bait, averaged over … to 0.00133 average fractional NGS count over selection days 2 and 3 (reads of this peptide / all reads for the bait, averaged over ….

Compared with chain 1 P10A, chain 1 Y13A is lower in screen value: 0.00236 average fractional NGS count over selection days 2 and 3 (reads of this peptide / all reads for the bait, averaged over … for the first, 0.000758 average fractional NGS count over selection days 2 and 3 (reads of this peptide / all reads for the bait, averaged over … for the second.

Going from chain 1 Y13R to chain 1 Y13Q, the screen value rises from 0.00043 average fractional NGS count over selection days 2 and 3 (reads of this peptide / all reads for the bait, averaged over … to 0.00224 average fractional NGS count over selection days 2 and 3 (reads of this peptide / all reads for the bait, averaged over ….

Compared with chain 1 Y13N, chain 1 Y13L is lower in screen value: 0.00437 average fractional NGS count over selection days 2 and 3 (reads of this peptide / all reads for the bait, averaged over … for the first, 0.00182 average fractional NGS count over selection days 2 and 3 (reads of this peptide / all reads for the bait, averaged over … for the second.

Compared with chain 1 Y13G, chain 1 Y13K is higher in screen value: 0.000568 average fractional NGS count over selection days 2 and 3 (reads of this peptide / all reads for the bait, averaged over … for the first, 0.000613 average fractional NGS count over selection days 2 and 3 (reads of this peptide / all reads for the bait, averaged over … for the second.

First: chain 1 Y13F
Second: chain 1 Y13E
The screen value of the first is higher: 0.0029 average fractional NGS count over selection days 2 and 3 (reads of this peptide / all reads for the bait, averaged over … for the first, 0.000568 average fractional NGS count over selection days 2 and 3 (reads of this peptide / all reads for the bait, averaged over … for the second.

Going from chain 1 Y13V to chain 1 Y13D, the screen value rises from 0.0012 average fractional NGS count over selection days 2 and 3 (reads of this peptide / all reads for the bait, averaged over … to 0.0137 average fractional NGS count over selection days 2 and 3 (reads of this peptide / all reads for the bait, averaged over ….

First: chain 1 Y13S
Second: chain 1 Y13M
The screen value of the first is higher: 0.00787 average fractional NGS count over selection days 2 and 3 (reads of this peptide / all reads for the bait, averaged over … for the first, 0.00125 average fractional NGS count over selection days 2 and 3 (reads of this peptide / all reads for the bait, averaged over … for the second.

Compared with chain 1 D2E, chain 1 D2H is higher in screen value: 0.00176 average fractional NGS count over selection days 2 and 3 (reads of this peptide / all reads for the bait, averaged over … for the first, 0.0024 average fractional NGS count over selection days 2 and 3 (reads of this peptide / all reads for the bait, averaged over … for the second.

First: chain 1 D2W
Second: chain 1 D2M
The screen value of the first is higher: 0.0007 average fractional NGS count over selection days 2 and 3 (reads of this peptide / all reads for the bait, averaged over … for the first, 0.000501 average fractional NGS count over selection days 2 and 3 (reads of this peptide / all reads for the bait, averaged over … for the second.

First: chain 1 D2S
Second: chain 1 D2F
The screen value of the first is higher: 0.00166 average fractional NGS count over selection days 2 and 3 (reads of this peptide / all reads for the bait, averaged over … for the first, 0.00154 average fractional NGS count over selection days 2 and 3 (reads of this peptide / all reads for the bait, averaged over … for the second.

In the case of chain 1 D2Y, the screen value is reported as 0.000691 average fractional NGS count over selection days 2 and 3 (reads of this peptide / all reads for the bait, averaged over ….
